The test system of this series is piggyBac transposase wild type (Trichoplusia ni). In words: cell_activity. The note with it: yeast excision assay; reference.
piggyBac transposase wild type (Trichoplusia ni), sequence (chain, as listed by the source): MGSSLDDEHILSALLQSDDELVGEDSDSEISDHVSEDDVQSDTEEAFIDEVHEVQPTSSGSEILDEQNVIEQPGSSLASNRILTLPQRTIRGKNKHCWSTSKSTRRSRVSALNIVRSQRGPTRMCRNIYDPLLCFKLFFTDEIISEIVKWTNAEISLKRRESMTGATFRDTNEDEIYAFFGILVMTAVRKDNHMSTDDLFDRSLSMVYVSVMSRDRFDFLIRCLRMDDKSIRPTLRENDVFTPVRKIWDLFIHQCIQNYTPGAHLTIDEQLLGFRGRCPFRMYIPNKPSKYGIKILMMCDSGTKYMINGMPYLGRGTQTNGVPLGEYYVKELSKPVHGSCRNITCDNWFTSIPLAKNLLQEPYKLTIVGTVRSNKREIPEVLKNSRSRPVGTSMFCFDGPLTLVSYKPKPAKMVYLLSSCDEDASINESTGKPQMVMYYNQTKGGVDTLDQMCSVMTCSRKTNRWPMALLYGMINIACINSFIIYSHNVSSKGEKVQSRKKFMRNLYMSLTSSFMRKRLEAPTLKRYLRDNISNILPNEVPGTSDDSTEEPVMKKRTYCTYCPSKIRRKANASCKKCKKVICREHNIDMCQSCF

Substance “piggyBac transposon ura- to ura+ excision cassette in yeast” had an activity (fold (normalized)) of 1.

Source of the values: patent US11434503.
